Assay results from patent US20250197483A1 (US Dept. of Health and Human Services, published 2025).
Changes are numbered by the printed parent chain.

B1: VRC07-523LS.v1 (antibody, human IgG1, kappa)
heavy: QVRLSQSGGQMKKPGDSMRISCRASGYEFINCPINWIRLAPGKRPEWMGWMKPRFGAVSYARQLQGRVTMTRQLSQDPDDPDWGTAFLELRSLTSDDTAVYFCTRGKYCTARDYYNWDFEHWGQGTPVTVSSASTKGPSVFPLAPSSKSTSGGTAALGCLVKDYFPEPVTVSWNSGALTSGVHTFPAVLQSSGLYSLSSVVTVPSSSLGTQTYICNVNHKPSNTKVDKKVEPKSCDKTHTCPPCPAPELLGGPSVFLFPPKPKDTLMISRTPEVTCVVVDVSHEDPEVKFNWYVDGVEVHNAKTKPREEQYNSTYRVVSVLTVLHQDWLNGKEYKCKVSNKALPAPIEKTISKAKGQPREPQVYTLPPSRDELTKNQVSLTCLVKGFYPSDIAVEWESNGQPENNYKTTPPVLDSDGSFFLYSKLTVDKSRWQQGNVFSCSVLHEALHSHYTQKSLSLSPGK
light: LTQSPGTLSLSPGETAIISCRTSQYGSLAWYQQRPGQAPRLVIYSGSTRAAGIPDRFSGSRWGPDYNLTISNLESGDFGVYYCQQYEFFGQGTKVQVDIKRTVAAPSVFIFPPSDEQLKSGTASVVCLLNNFYPREAKVQWKVDNALQSGNSQESVTEQDSKDSTYSLSSTLTLSKADYEKHKVYACEVTHQGLSSPVTKSFNRGEC
B2: VRC07-523LS.v11 (antibody, human IgG1, kappa)
heavy: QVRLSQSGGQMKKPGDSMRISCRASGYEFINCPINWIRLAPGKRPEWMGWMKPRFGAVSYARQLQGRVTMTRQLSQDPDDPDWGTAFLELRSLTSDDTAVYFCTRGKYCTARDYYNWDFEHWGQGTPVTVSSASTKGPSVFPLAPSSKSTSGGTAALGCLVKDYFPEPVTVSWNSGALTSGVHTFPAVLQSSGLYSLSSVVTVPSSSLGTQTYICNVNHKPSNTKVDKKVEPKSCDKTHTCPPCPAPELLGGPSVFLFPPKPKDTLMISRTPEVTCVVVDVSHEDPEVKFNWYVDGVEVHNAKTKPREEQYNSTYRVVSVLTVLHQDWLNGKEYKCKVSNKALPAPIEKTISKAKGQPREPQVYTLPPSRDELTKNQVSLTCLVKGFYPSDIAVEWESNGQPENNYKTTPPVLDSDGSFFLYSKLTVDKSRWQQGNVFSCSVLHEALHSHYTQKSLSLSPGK
light: B1 light with R21D
B3: VRC07-523LS.v34 (antibody, human IgG1, kappa)
heavy: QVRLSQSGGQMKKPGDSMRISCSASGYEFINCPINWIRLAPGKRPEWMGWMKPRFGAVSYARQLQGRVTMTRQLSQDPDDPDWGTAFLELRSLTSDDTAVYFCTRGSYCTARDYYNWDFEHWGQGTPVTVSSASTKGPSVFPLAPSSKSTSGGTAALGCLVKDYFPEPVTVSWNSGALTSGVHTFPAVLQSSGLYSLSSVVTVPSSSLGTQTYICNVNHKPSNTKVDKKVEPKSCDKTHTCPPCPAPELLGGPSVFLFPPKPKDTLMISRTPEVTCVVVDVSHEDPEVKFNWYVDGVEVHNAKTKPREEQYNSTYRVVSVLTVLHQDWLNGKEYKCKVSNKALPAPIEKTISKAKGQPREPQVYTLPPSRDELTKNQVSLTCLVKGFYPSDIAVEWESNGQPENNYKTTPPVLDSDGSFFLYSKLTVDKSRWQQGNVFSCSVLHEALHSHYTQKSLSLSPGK
light: B1 light with R21E

molecular target: T1, FcRn/β2m heterodimer (UniProt P55899 24-297; P61769 21-119); assay: BLI (Octet), pH 7.4: Ni-NTA biosensors coated with His-tagged FcRn/β2m dipped into wells with the antibody as analyte
T1 construct: also called His-tagged FcRn/β2m; neonatal Fc receptor
T1 sequence (P55899 24-297 limits assumed, chain 1 of 2): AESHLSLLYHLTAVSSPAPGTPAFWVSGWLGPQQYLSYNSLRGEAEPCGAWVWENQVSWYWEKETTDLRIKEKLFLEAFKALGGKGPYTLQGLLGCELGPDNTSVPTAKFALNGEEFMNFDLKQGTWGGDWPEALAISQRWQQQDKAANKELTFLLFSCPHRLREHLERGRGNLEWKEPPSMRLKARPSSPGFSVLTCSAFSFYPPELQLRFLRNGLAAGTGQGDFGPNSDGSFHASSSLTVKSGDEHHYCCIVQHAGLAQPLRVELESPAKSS
T1 sequence (P61769 21-119 limits assumed, chain 2 of 2): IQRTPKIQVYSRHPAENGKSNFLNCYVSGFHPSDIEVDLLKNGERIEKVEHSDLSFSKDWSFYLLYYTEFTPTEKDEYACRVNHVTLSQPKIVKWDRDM
Description: Fc-FcRn binding kinetics by bio-layer interferometry. We used Octet HTX system (ForteBio) to measure the Fc-FcRn binding kinetics with FcRn/2m as ligand. […] For reference, we repeated the entire steps mentioned above but with blank Ni-NTA biosensors. Binding kinetic sensograms were globally fitted with 1:1 model and double referencing to extract kinetic parameters.

Point of comparison: B1, Kd 0.93 µM. Against it:
- B2 — 4.3-fold higher, 3.96 µM
- B3 — 6.5-fold higher, 6 µM
